Experimental findings from patent US20090136527A1 are described below.

Non-standard residues stand in square brackets, D forms with d. pGlu = O=C1CC[C@@H](C(=O)O)N1

The target in test [1] is T1, human GnRH receptor (human) (UniProt P30968).
T1 sequence (looked up): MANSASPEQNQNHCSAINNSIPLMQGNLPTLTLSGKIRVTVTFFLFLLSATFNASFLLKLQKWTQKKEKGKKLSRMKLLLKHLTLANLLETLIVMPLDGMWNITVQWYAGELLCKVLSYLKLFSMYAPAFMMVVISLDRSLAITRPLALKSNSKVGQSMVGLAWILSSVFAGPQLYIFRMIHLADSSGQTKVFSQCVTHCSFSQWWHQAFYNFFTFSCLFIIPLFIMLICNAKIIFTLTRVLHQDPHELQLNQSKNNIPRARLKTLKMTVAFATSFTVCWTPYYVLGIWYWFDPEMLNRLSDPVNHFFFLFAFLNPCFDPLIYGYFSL
Put plainly: cell-based or functional assay.

Test [2] has as its target affinity purified rabbit anti-RI-GnRH antibody fraction eluted with potassium thiocyanate, first fraction (KSCN 1). The experiment in a line: inhibition ELISA: antibody fraction preincubated with free peptide, binding to coated RI-GnRH. In general terms: In an ELISA, binding on a coated surface is turned into a signal by an enzyme label.

B1: GnRH II ([His5, Trp7, Tyr8]GnRH) (peptide)
peptide: [pGlu]HWSHGWYPG-NH2
SMILES: NC(=O)CNC(=O)[C@@H]1CCCN1C(=O)[C@H](Cc1ccc(O)cc1)NC(=O)[C@H](Cc1c[nH]c2ccccc12)NC(=O)CNC(=O)[C@H](Cc1c[nH]cn1)NC(=O)[C@H](CO)NC(=O)[C@H](Cc1c[nH]c2ccccc12)NC(=O)[C@H](Cc1c[nH]cn1)NC(=O)[C@@H]1CCC(=O)N1
Take B1: the half-maximal effective concentration (EC50) of IP production in test [1] is 1 nM.

B2: chicken GnRH I ([Gln8]GnRH) (peptide)
peptide: EHWSYGLQPG
modifications: pGlu (pyroglutamate) at position 1; C-terminal amide
B2 yielded a half-maximal effective concentration (EC50) of IP production in test [1] of 1 nM. This molecule displayed an IC50 (read off the curve) in test [2] of 100 nM.
